From patent US20110294740A1

Biological target: Dutch/Iowa CAA double mutant Aβ40 (UniProt P05067)
Assay: SPR, Aβ peptide immobilised, MBP as analyte

Dutch/Iowa CAA double mutant Aβ40, sequence (P05067 672-711, change not shown): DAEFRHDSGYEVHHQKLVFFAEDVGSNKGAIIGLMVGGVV
myelin basic protein (purified MBP), sequence (P02686 135-304 limits assumed): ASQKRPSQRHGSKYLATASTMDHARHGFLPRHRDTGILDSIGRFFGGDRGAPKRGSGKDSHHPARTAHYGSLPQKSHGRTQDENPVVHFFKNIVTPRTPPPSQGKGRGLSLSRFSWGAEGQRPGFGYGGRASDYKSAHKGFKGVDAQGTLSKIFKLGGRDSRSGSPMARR

## myelin basic protein (purified MBP) (from UniProt P02686 2-171)
  Kd: 16.9 nM
